According to US20140248641A1, “CLONED GLUCAGON-LIKE PEPTIDE-2 RECEPTORS” (NPS PHARMACEUTICALS, INC., priority 1997, published 2014):
Numbering of substitutions follows the chain as printed.

Legend:
Format in all cases: cell-based
[1] = molecular target: T1, Rat clone 587 GLP-2 receptor (Rattus norvegicus, UniProt Q9Z0W0); assay: cAMP functional assay in transfected COS-1 cells, rat GLP-2 receptor
T1 construct: one which primed starting 4 bp upstream of the initiation codon and another which primed starting 8 bp downstream of the stop codon; expressed in transfected cells; host or cells: COS-1
T1 sequence (Q9Z0W0 1-550): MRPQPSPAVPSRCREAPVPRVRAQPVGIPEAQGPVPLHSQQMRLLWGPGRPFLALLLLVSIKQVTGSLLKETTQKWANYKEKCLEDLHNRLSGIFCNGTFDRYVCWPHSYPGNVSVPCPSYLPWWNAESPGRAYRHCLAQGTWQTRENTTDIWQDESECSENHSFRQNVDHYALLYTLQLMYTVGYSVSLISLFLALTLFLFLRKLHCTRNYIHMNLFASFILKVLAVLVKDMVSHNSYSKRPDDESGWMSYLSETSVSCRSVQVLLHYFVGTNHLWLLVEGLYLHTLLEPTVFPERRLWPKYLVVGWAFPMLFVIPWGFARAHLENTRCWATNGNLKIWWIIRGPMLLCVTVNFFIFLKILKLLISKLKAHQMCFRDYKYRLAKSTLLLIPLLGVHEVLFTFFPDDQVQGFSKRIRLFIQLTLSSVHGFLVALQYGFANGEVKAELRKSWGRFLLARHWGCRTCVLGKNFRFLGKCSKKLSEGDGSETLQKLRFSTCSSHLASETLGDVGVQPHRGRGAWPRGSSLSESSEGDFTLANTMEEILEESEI
Method: (§1) Cos-1 cells were transfected as described in Analytical Biochemistry, 218:460-463(1994) with Rat clone 587 GLP-2 receptor, cloned human GLP-2 receptor (pC3/HuGL2R-2), or cloned residue 85 variant human GLP-2 receptor (pC3.1/HuGL2R-MH4), pcDNA3. Rat GLP-1 (7-36) amide was used as a control peptide. Solutions used were as follows:
(§2) RSC in RPMI 1640 (49 ml RPMI+1 ml FCS+5)0 ulchloroquine, 100 mM); DEAE/RSC Solution: 18.4 ml RSC+1.6 ml DEAE/Dextran (10 mg/ml).
(§3) The assay procedure entailed the following: […]
The functional assay was performed as follows: cAMP content for each extract was determined in duplicate by EIA (Enzyme ImmunoAssay) using the Amersham Biotrak cAMP EIA Kit (Amersham 225).

[2] = molecular target: T2, cloned human GLP-2 receptor (pC3/HuGL2R-2) (Homo sapiens, UniProt O95838); assay: cAMP functional assay in transfected COS-1 cells, human GLP-2 receptor; settings: FIG. 8
T2 construct: expressed in transfected cells; host or cells: COS-1
T2 sequence (O95838 1-553): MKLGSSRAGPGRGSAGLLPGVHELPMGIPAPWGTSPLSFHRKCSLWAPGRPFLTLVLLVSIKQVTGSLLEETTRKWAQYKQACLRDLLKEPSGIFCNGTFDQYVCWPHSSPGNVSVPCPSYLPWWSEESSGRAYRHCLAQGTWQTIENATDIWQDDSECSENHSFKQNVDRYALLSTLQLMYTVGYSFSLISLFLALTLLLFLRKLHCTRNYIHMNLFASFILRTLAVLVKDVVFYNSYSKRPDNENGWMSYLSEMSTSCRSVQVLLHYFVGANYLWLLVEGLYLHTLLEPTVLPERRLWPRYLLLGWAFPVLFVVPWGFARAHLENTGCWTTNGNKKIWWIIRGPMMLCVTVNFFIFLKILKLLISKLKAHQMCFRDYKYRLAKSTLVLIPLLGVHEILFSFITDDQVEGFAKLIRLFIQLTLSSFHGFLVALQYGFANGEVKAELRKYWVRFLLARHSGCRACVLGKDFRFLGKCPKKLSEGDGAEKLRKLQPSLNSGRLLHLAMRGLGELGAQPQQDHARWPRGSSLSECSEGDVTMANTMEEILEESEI
Method: as §1, §2, §3
(§4) The functional assay was performed as follows: cAMP content for each extract was determined in duplicate by EIA (Enzyme ImmunoAssay) using the Amersham Biotrak cAMP EIA Kit (Amersham 225). […]

[3] = molecular target: T3, cloned residue 85 variant human GLP-2 receptor (Homo sapiens, UniProt O95838, R85E); assay: cAMP functional assay in transfected COS-1 cells, residue 85 variant human GLP-2 receptor; settings: hybrid clone pc3.1/HuGL2R/MH6 with 2 bp GA replacement (Glu85 variant)
T3 construct: Myc-His (from vector pcDNA3.1(-)/Myc-His A) (C); expressed in transfected cells; host or cells: COS-1
T3 sequence (O95838 1-553 R85E): T2 sequence (O95838 1-553) with R85E
Method: Rat GLP-1 (7-36) amide was used as a control peptide. Solutions used were as follows:
as §2
The assay procedure entailed the following:
a) […] of either rat clone 587 GLP-2 receptor, or cloned human GLP-2 receptor, or cloned residue 85 variant human GLP-2 receptor was added (as plasmid pcDNA3) to a 50 ml tube containing six mls. of RSC and incubated at 37° C. b) Six ml of DEAE/RSC solution was added to each tube and incubated at 37° C. for 2 min. c) 1.5 ml of COS-1 cell suspension (5.5 millions cells) was added to each tube and incubated for 1 hr 45 min at 37° C. d) Following incubation, the sample was spun for 5 minutes at low speed, washed with DMEM/F12+10% FBS twice, and the pellet resuspended in 12.5 ml DMEM/F12+10% FBS media. e) One ml of cell suspension (step d) was added to each well of 6 well plates coated with poly-D-lysine (from Collaborative Biomedical), containing 3 ml of media (0.45 million cells/well). f) Plates were incubated at 37° C. for 3 days.
Media was prepared fresh on day of use. […]
as §4

[4] = test system: HHT13 clones (human GLP-2R cDNA with frame-shift mutation); assay: cAMP functional assay in COS cells transfected with HHT13 clones; settings: COS cells transfected with pHHT13-1, pHHT13-2, pHHT13-3
Method: Transfections were carried out with each clone, using the rat GLP-2R, 587 clone as a positive control for cAMP response to GLP-2 peptide. Methods for transfection, cell culture and cAMP assay were identical to those described for the functional assay of rat, 587 clone.

Glucagon-like peptide-2 [GLP-2]
cAMP response to GLP-2 peptide ([1]; COS cells transfected with rat GLP-2R 587 clone (positive control), cAMP EIA): good cAMP response
selectivity of receptor for GLP-2 over GLP-1 (cAMP) ([1]; cloned rat receptor, peptides at 1, 3, 10 and 30 nM, 30 min, FIG. 3): GLP-2 selectivity
cAMP production in response to GLP-2 treatment ([2]; COS cells transfected with pc3/HuGL2R-2): cAMP production
selectivity of receptor for GLP-2 over GLP-1 (cAMP) ([2]; cloned human receptor, peptides at 1, 3, 10 and 30 nM, 30 min): GLP-2 selectivity
cAMP response to GLP-2 treatment [3]: cAMP response
cAMP response to GLP-2 peptide [4]: none of the HHT13 clones gave any cAMP response
